Measured values published in patent US20220135701A1 (Genentech, published 2022).
Read-outs that look alike come from different tables or passages of the source.

B1: h13B4.v1 (antibody, V domains shown)
VH: EQQLVESGEGLVQPGGSLRLSCAVSGFSLSSYAMGWVRQAPGKGLEWIGIINSYGNTYYANWAKGRFTISRDSSKNTVYLQMGSLRAEDMAVYFCARDPGVSSNLWGPGTLVTVSS
VL: DVQMTQSPSTLSASVGDRVTITCQASQNIYSGLAWYQQKPGKPPKLLIYGASKLASGVPSRFSGSGSGTEFTLTISSLQPDDFATYYCQATYYSSNSVAFGGGTKVEIK
notes: also called h13B4.V1 (Parent); 13B4 Humanized mAb V1
B2: anti-MerTK 14C9 (mIgG2a LALAPG) (antibody, V domains shown)
VH: QSVEESGGRLVTPGTPLTLTCTVSGIDLSANTMNWVRQAPGKGLEWIGIFTATGSTYYATWVNGRFTISKTSTTVDLKITSPTTEDTATYFCARSGSGSSSGAFNIWGPGTLVTVSL
VL: DPVLTQTPASVSEPVGGTVTIKCQASQSISSSLAWYQQKPGQPPKLLIYAASILASEISSRFKGSRSGTEFTLTISDLECADAATYYCQCTSYGSLFLGPFGGGTEVVVK

Tests used:
human MerTK [1] = target: T1, human MerTK (human, UniProt Q12866 26-499); assay: SPR BIAcore T200, Ab captured, 37C
T1 construct: also called HuMER
T1 sequence: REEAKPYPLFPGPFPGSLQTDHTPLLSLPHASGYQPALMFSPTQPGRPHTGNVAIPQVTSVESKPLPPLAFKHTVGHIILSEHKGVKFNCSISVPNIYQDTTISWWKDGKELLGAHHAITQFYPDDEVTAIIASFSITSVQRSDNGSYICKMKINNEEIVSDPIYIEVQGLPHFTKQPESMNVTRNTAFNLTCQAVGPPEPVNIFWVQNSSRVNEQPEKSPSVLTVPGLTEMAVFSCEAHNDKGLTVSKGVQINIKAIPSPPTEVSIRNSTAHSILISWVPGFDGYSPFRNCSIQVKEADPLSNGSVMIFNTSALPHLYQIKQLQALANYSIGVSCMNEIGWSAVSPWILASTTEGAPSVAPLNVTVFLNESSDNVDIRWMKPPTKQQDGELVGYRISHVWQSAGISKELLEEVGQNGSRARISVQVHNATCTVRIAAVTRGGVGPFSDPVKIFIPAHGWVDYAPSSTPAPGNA

human MerTK [2] = target: T1, human MerTK; assay: SPR BIAcore T200, Ab captured, 37C; remark: listed apart in the source
In short: (§1)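 Rabbit or humanized antibody captured to ~100 RU; MerTK injected as 3-fold dilutions from 0.4 nM to 100 nM in HBS-EP (HEPES pH 7.4) at 30 μl/min, at 25° C. or 37° C. kon and koff fitted to a 1:1 Langmuir model; KD = koff/kon.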

cynomolgus monkey MerTK [3] = target: T2, cynomolgus monkey MerTK (cynomolgus monkey, UniProt A0A2K5V1H9 32-505); assay: SPR BIAcore T200, Ab captured, 37C
T2 construct: Soluble analyte in SPR; also called Cyno MerTK
T2 sequence: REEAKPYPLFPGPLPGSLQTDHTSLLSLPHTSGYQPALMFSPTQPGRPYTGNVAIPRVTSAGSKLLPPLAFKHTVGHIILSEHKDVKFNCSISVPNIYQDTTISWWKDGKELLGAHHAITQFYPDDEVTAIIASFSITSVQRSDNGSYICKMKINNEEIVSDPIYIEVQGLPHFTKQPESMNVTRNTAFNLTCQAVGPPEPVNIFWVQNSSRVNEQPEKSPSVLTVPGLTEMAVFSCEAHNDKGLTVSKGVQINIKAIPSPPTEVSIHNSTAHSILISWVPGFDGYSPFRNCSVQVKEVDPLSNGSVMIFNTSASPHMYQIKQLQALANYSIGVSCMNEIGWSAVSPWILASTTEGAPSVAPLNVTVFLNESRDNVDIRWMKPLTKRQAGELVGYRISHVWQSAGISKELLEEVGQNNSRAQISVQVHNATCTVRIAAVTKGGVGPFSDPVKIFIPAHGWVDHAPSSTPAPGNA
In short: as §1

human MerTK [4] = target: T1, human MerTK; assay: SPR BIAcore T200, Ab captured, 37C; remark: listed apart in the source
Description: (§2) All binding affinity determinations were obtained using Surface Plasmon Resonance (SPR) measurements from a BIAcore™-T200 instrument. Briefly, each rabbit or humanized antibody was captured to achieve approximately 100 RU (Response Units). Then, 3-fold serial dilutions of MerTK from various species (0.4 nM to 100 nM) diluted in HBS-EP buffer (0.01M HEPES pH 7.4, 0.15M NaCl, 3 mM EDTA and 0.05% v/v surfactant P20) was injected into the BIAcore™-T200 instrument at 25° C. or 37° C. with a flow rate of 30 μl/min. Association rates (kₒₙ) and dissociation rates (koff) were calculated using a simple one-to-one Langmuir binding model (BIAcore T200 evaluation software version 2.0). The equilibrium dissociation constant (KD) was calculated as the ratio koff/kₒₙ.

cynomolgus monkey MerTK [5] = target: T2, cynomolgus monkey MerTK; assay: SPR BIAcore T200, Ab captured, 37C; remark: listed apart in the source
Description: as §2

[6] = target: T3, mouse MerTK on mouse macrophages (mouse, UniProt Q60805 19-994); assay: cell-based or functional assay
T3 sequence (looked up): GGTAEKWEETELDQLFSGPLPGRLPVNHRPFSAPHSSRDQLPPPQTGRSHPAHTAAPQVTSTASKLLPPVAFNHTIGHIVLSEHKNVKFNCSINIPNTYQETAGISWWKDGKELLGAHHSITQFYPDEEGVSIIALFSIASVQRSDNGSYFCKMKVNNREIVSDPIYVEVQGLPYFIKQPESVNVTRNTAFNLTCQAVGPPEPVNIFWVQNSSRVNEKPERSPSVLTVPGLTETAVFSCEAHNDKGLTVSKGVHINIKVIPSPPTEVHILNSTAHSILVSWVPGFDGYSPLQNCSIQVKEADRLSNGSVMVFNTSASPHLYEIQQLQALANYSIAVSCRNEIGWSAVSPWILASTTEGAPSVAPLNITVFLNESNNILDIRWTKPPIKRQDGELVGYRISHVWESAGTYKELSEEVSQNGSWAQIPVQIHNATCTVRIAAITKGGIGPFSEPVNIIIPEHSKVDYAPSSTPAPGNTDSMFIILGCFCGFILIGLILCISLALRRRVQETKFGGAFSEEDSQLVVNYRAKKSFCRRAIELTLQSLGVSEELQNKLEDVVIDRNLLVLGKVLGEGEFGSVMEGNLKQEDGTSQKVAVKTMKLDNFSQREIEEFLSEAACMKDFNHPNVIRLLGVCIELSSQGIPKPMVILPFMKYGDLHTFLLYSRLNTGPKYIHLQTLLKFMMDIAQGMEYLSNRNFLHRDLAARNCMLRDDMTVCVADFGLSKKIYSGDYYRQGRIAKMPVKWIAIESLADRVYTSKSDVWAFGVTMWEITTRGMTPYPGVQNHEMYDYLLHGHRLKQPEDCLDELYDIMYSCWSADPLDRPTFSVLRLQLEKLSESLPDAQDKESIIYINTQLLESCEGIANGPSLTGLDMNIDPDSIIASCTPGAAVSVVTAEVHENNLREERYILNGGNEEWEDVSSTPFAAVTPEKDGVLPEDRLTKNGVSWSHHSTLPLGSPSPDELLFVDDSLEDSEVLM

[7] = target: T3, mouse MerTK on mouse macrophages; assay: cell-based or functional assay; remark: listed apart in the source

Row | Binder | Kd (human MerTK [1]) [nM] | Kd (human MerTK [2]) [nM] | Kd (cynomolgus monkey MerTK [3]) [nM] | Kd (human MerTK [4]) [nM] | Kd (cynomolgus monkey MerTK [5]) [nM] | fold decrease in phagocytic clearance of apoptotic thymocytes by peritoneal macrophages, against control anti-gp120 [6] [fold] | fold potency in inhibiting mouse macrophage phagocytosis, against h10F7.v16 [6] [fold] | IC50 (nM), efferocytosis by mouse macrophages, Average [7] [nM]
1 | B1 | 4.8 | 4.8 | 5.6 | 4.3 | 5 | – | – | –
2 | B2 | – | – | – | – | – | ~8 | 4.8 | 0.19
